Blank lines part the entries; values can stand above or below the compound they belong to.
Assays:
Pharmacokinetic analysis = experiment: Pharmacokinetic analysis
Source text: Table printed on a drawing sheet, Fig. 15C
Title: Pharmacokinetic analysis
The patent's description of the figure: FIG. 15. Pharmacokinetics of EC0746 and potential metabolites aminopterin (AMT) and AMT hydrazide (EC0470) in Rats. Panel A. Plasma concentrations (nmol/L) of EC0746, AMT and AMT hydrazide following single subcutaneous EC0746 (500 nmol/kg) administration. Panel B. Plasma concentrations (nmol/L) of AMT following single subcutaneous AMT (500 nmol/kg) administration. c. Pharmacokinetic analysis of the results of (a.) and (b.).
First reader's note: Each column is an analyte detected in rat plasma after dosing the test compound named in row 1; values are means of n=3.

RAW264.7 cells = experiment: XTT cell viability / proliferation of RAW264.7 cells; format: cell-based, murine
Protocol: (§1) For XTT cell viability and TNF-α inhibition assays, RAW264.7 cells in 96-well plates were treated with vehicle (culture medium) or 10-fold serial dilutions of EC0746 without or with 100-fold excess free folate. After 2 h incubation, the drug-containing media were replaced and the cells were allowed to incubate further for 70 h. Four hours prior to the end of incubation, LPS was added to the treated cells at a final concentration of 100 ng/mL. 100 μL of the culture supernatants were collected for TNF-α analysis using a commercial ELISA kit. See FIG. 2, Panel B. The cell viability was assessed by adding XTT (2,3-bis(2-methoxy-4-nitro-5-sulfo-phenyl)-2H-tetrazolium-5-carboxanilide) to the remaining medium for an additional 4 h following the manufacturer's instructions (Roche Applied Science, Indianapolis, Ind.) See FIG. 2, Panel A. Both results were expressed as % absorbance (minus background) relative to untreated control in triplicates.
(§2) RAW264.7 cells in 96-well plates were treated with vehicle (culture medium) or 10-fold serial dilutions of EC0932 without or with 100-fold excess free folate. […] The cell viability was assessed by adding XTT (2,3-bis(2-methoxy-4-nitro-5-sulfo-phenyl)-2H-tetrazolium-5-carboxanilide) to the remaining medium for an additional 4 h following the manufacturer's instructions (Roche Applied Science, Indianapolis, Ind.). […]

[1] = system: LPS-stimulated TNF-α production in RAW264.7 cells; experiment: LPS-stimulated TNF-α production in RAW264.7 cells (ELISA); format: cell-based, murine; settings: 72 h incubations
Protocol: as §1, §2

[2] = Plasma pharmacokinetics after a single subcutaneous dose of EC0746 or aminopterin
Protocol: Female Lewis rats with rounded tip jugular vein catheters (Harlan) were fed regular rodent diet and used in this study. The animals were given a single subcutaneous dose of EC0746 at 500 nmol/kg. Whole blood samples (300 μl) were collected from the animals at the following time points: 1 min, 10 min, 30 min, 1 h, 2 h, 3 h, 4 h, and 8 h after injection. The blood samples were placed into anti-coagulant tubes containing 1.7 mg/mL of K3-EDTA and 0.35 mg/mL of N-Maleoyl-beta-alanine (0.35 mg/mL). Plasma samples were obtained by centrifugation for 3 min at ˜2,000 g and stored at −80° C. The amount of EC0746 and its released base drugs (EC0470 & aminopterin) were determined by HPLC using the EC0746 injection solution as the standard (see FIG. 4). […] A similar method was used to determine the plasma pharmacokinetics of aminopterin (see FIG. 5).
Thus, the plasma concentrations of EC0746 and two primary metabolites, AMT and AMT hydrazide, were determined by LC/MS/MS after a single subcutaneous EC0746 administration. […] For comparison, the pharmacokinetics of subcutaneously dosed AMT (500 nmol/kg) was also examined (FIG. 15b).

Serum protein binding = format: in vitro ADME
[3] = Maximum tolerated dose in folate-deficient rats; format: in vivo, rat
Protocol: Healthy rats were administered a subcutaneous injection of the indicated dose of aminopterin or EC0746 biweekly for 2 weeks; control animals, no treatment, 100 nmole/kg aminopterin, 50 nmole/kg aminopterin, 500 nmole/kg EC0746, or 2000 nmole/kg EC0746. The animals were weighed daily. See FIG. 6, Panels A and B. A dose of […] of aminopterin in folate deficient rats is above the MTD; therefore, the projected MTD of EC0746 would be <0.5 μmol/kg based solely on ˜20% free drug release shown in the previous Example. However, the MTD of EC0746 is actually 2.0 μmol/kg, which is equivalent to 0.4 μmol/kg, or ˜8× higher than the MTD for free aminopterin. On a molar basis for total aminopterin, the MTD is 40× higher.
Since the toxicity of antifolates can be easily masked by rodent diets enriched with folate, healthy rats on a folate-deficient diet (Harlan) were used to determine the maximum-tolerated-dose levels (MTD) of EC0746, AMT and MTX. The animals were given biweekly injections of EC0746, AMT, and MTX for two weeks. The MTD dose was defined as the dose that had caused at least 13-14% weight loss combined with clinical signs of stress and at least one animal in the >MTD dose group needed to be euthanized. Standard hematologic and blood chemistry parameters were examined as needed along with histopathology. The MTDs of EC0746, MTX and AMT were determined to be 2000, 1000, and 50 nmol/kg, respectively. At above the MTD dose level, the main toxicities of EC0746 were similar to those of AMT and MTX, including manifested gastrointestinal distress (diarrhea), swollen muzzle, immunosuppression (bone marrow, thymus), low white-blood-cell count, low platelet count, and infections. […] Overall, EC0746 was approximately 40-fold less toxic than AMT and 2-fold less toxic than MTX on an equimolar basis in these folate-deficient animals; however, its toxicity profile at above MTD levels was not dissimilar from that of AMT and MTX.

[4] = target: folate receptors (FR-α) of KB cells (Homo sapiens, UniProt P15328); settings: FR-α positive, 3H-folic acid
Sequence of folate receptors (FR-α) of KB cells (P15328 25-234): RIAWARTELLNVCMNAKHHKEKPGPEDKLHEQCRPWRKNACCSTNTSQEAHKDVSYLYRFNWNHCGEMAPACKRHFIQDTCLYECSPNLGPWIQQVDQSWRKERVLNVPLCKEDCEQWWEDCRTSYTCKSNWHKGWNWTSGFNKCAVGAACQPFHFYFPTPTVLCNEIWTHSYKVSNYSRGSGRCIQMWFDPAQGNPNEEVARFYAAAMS

[5] = target: folate receptors (FR-β) of CHO cells (Homo sapiens, UniProt P14207); settings: 3H-folic acid
Sequence of folate receptors (FR-β) of CHO cells (P14207 17-230, species assumed): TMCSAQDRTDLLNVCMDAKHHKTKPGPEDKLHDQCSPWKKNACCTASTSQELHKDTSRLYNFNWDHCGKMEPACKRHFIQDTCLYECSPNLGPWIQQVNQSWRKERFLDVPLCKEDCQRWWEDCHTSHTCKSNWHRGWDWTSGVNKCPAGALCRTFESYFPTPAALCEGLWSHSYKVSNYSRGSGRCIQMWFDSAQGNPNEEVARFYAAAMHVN

DHFR = target: T1, DHFR (Mus musculus, UniProt P00375); experiment: DHFR activity in lysate of treated RAW264.7 cells; format: cell-based, murine; settings: 10 μM, 2-h pulse, 22-h chase
T1 construct: endogenous in cells; host or cells: RAW264.7
T1 sequence (P00375 1-187): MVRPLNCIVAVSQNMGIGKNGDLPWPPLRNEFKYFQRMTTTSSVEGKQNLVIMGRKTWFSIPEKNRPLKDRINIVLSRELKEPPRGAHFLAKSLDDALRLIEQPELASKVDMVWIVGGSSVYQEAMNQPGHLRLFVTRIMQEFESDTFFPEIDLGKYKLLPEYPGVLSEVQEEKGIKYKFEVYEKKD
Protocol: RAW264.7 cells were treated with vehicle (medium), EC0746 (100 nM) without or with 100-fold excess free folate, aminopterin (AMT, 100 nM), methotrexate (MTX, 100 nM), or excess free folate alone (10 μM). […] At the end of incubation, the cells were lysed and the DHFR activity in cell lysates was measured using a commercial DHFR assay kit (Sigma-Aldrich, Saint Louis, Mo.).

[6] = after single s.c. dose of EC0746 500 nmole/kg
[7] = rat, in vivo, subcutaneous, folate-deficient rats, biweekly injections for two weeks

Structure (SMILES): Nc1nc(N)c2nc(CNc3ccc(C(=O)N[C@@H](CCC(=O)O)C(=O)O)cc3)cnc2n1 [AMT | AMT]
AUC0-t | (Pharmacokinetic analysis): 61.3 nmol/min/mL | CL or CL_F | (Pharmacokinetic analysis): 1.7 mL/min | Cmax | (Pharmacokinetic analysis): 601 nM | T1/2(elimination) | min (Pharmacokinetic analysis): 140 min | Tmax | min (Pharmacokinetic analysis): 30 min | Vz or Vz_F | mL (Pharmacokinetic analysis): 328 mL

Structure (SMILES): NNC(=O)CC[C@H](NC(=O)c1ccc(NCc2cnc3nc(N)nc(N)c3n2)cc1)C(=O)O [EC0470, aminopterin gamma-hydrazide, reference compound]
cell proliferation in the XTT assay, potency of potential EC0746 metabolites (RAW264.7 cells; 72 h incubations): equally potent | LPS-stimulated TNF-α production, potency of potential EC0746 metabolites [1]: equally potent | Tmax of released base drug ([2]; released from EC0746 after single s.c. dose 500 nmol/kg): ~60 min | delay of plasma peak from the EC0746 Cmax ([2]; released from EC0746 in EC0746-dosed rats): 30 min

Structure (SMILES): N=c1[nH]c(N)nc2ncc(CNc3ccc(C(=O)N[C@@H](CCC(=O)NNC(=O)OCCSSC[C@H](NC(=O)[C@H](CCC(=O)NC[C@H](O)[C@@H](O)[C@H](O)[C@H](O)CO)NC(=O)[C@H](CCC(=O)O)NC(=O)[C@H](CCC(=O)NC[C@H](O)[C@@H](O)[C@H](O)[C@H](O)CO)NC(=O)[C@H](CCC(=O)O)NC(=O)[C@H](CCC(=O)NC[C@H](O)[C@@H](O)[C@H](O)[C@H](O)CO)NC(=O)CC[C@H](NC(=O)c4ccc(NCc5cnc6nc(N)[nH]c(=O)c6n5)cc4)C(=O)O)C(=O)O)C(=O)O)cc3)nc12 [EC0746]
EC50 (RAW264.7 cells; 2 hour treatment followed by 72 hours in treatment-free medium): 0.33 nM | Area Under Curve for free drug [2, 6]: 7.3 nmol·min/mL | Cmax for free drug (aminopterin+aminopterin hydrazide) [2, 6]: 34 nM | Cmax for free drug as share of the total [2, 6]: 9.6% | time at which Cmax for free drug (aminopterin+aminopterin hydrazide) is reached [2, 6]: 60 min | half-life ([2]; female, Lewis, rat, in vivo, sc, 500 nmol/kg): ~35 min | Cmax ([2]; female, Lewis, rat, in vivo, sc, 500 nmole/kg): 321 nM | bioavailability after subcutaneous administration ([2]; rats, s.c.): bioavailable | Area Under Curve for EC0746 ([2]; single s.c. dose of EC0746 500 nmole/kg): 32.5 nmol·min/mL | fraction unbound (Serum protein binding): ~0.54 | fold less toxic than AMT on an equimolar basis ([3]; folate-deficient animals): approximately 40 fold | fold less toxic than MTX on an equimolar basis ([3]; folate-deficient animals): ~2 fold | MTD (free drug equivalent) fold higher than the MTD for free aminopterin ([3]; rat, in vivo): ~8 × | MTD fold higher than aminopterin on a molar basis for total aminopterin ([3]; rat, in vivo): 40 × | MTD at 2 weeks ([3]; rat, in vivo, sc, s.c. biweekly for 2 weeks): 2 µmol/kg | MTD at 2 weeks [3, 7]: 2 µmol/kg | gastrointestinal-associated toxicities at MTD dose ([3]; rats, at MTD): less gastrointestinal-associated toxicities than AMT and MTX | relative folate receptor affinity (folic acid = 1) [4]: 0.50 | relative folate receptor affinity (folic acid = 1) [5]: 0.270

Structure (SMILES): Nc1nc(N)c2nc(CNc3ccc(C(=O)N[C@@H](CCC(=O)O)C(=O)O)cc3)cnc2n1 [aminopterin, reference compound]
elimination half-life of metabolite released from EC0746 ([2]; female, Lewis, rat, in vivo, sc): ~117 min | delay of plasma peak from the EC0746 Cmax ([2]; rat, in vivo): 30 min | MTD ([3]; folate-deficient rats, biweekly injections for two weeks): 50 nmol/kg

effect of folic acid alone on DHFR activity (DHFR): did not have any impact
Structure (SMILES): Nc1nc2ncc(CNc3ccc(C(=O)N[C@@H](CCC(=O)O)C(=O)O)cc3)nc2c(=O)[nH]1 [folic acid]

Structure (SMILES): CN(Cc1cnc2nc(N)nc(N)c2n1)c1ccc(C(=O)N[C@@H](CCC(=O)O)C(=O)O)cc1 [methotrexate, reference compound]
MTD at 2 weeks [3, 7]: 1 µmol/kg | relative folate receptor affinity (folic acid = 1) [4]: 0.018 | relative folate receptor affinity (folic acid = 1) [5]: 0.005
